Results on one molecule are retold here after publication PMC3078593, “Multifunctional transcription factor TFII-I is an activator of BRCA1 function” (British Journal of Cancer, 2011).

A value given as a limit tells only on which side of the number the result lay.

This experiment deals with GST-BRCT. The experiment is described as follows: cell-based or functional assay.

B1: GST-tagged TFII-I (wild type) (natural protein, UniProt P78347-2 1-957, looked up)
chain: MAQVAMSTLPVEDEESSESRMVVTFLMSALESMCKELAKSKAEVACIAVYETDVFVVGTERGRAFVNTRKDFQKDFVKYCVEEEEKAAEMHKMKSTTQANRMSVDAVEIETLRKTVEDYFCFCYGKALGKSTVVPVPYEKMLRDQSAVVVQGLPEGVAFKHPENYDLATLKWILENKAGISFIIKRPFLEPKKHVGGRVMVTDADRSILSPGGSCGPIKVKTEPTEDSGISLEMAAVTVKEESEDPDYYQYNIQGSHHSSEGNEGTEMEVPAEDDDYSPPSKRPKANELPQPPVPEPANAGKRKVREFNFEKWNARITDLRKQVEELFERKYAQAIKAKGPVTIPYPLFQSHVEDLYVEGLPEGIPFRRPSTYGIPRLERILLAKERIRFVIKKHELLNSTREDLQLDKPASGVKEEWYARITKLRKMVDQLFCKKFAEALGSTEAKAVPYQKFEAHPNDLYVEGLPENIPFRSPSWYGIPRLEKIIQVGNRIKFVIKRPELLTHSTTEVTQPRTNTPVKEDWNVRITKLRKQVEEIFNLKFAQALGLTEAVKVPYPVFESNPEFLYVEGLPEGIPFRSPTWFGIPRLERIVRGSNKIKFVVKKPELVISYLPPGMASKINTKALQSPKRPRSPGSNSKVPEIEVTVEGPNNNNPQTSAVRTPTQTNGSNVPFKPRGREFSFEAWNAKITDLKQKVENLFNEKCGEALGLKQAVKVPFALFESFPEDFYVEGLPEGVPFRRPSTFGIPRLEKILRNKAKIKFIIKKPEMFETAIKESTSSKSPPRKINSSPNVNTTASGVEDLNIIQVTIPDDDNERLSKVEKARQLREQVNDLFSRKFGEAIGMGFPVKVPYRKITINPGCVVVDGMPPGVSFKAPSYLEISSMRRILDSAEFIKFTVIRPFPGLVINNQLVDQSESEGPVIQESAEPSQLEVPATEEIKETDGSSQIKQEPDPTW
In the case of B1, the “luciferase activity of 17M8-AdMLP-luc driven by GAL4-BRCT (GAL-BRCT) in COS7 cells, with TFII-I expressed” value was ≤ 2 fold.
